Measurements: US20210292426A1 (Hoffmann-La Roche, published 2021)
Values belong to the binder of their own block, whether it stands above or below them.

Experiments:
[1] = target: T1, human fibroblast activation protein (huFAP) expressed on cells (human, UniProt Q12884 1-760); assay: flow cytometry, NIH/3T3-huFAP cells
T1 construct: UniProt Q12884 printed; also called human FAP; hFAP
Procedure: (§1) Plates were centrifuged 5 minutes at 1700 rpm and supernatants were flicked off. […] Afterwards the cells were washed three times with 200 μL 4° C. cold FACS buffer. […] Data analysis was performed using the FlowJo version 10 software (FlowJo LLC).

[2] = target: T2, human CD40 expressed on cells (human, UniProt P25942 21-277); assay: flow cytometry, primary human B cells
T2 construct: Endogenous CD40 on Raji, Daudi and primary human B cells; human CD40 on DCs of huCD40tg mice; also called huCD40; Raji cells
Procedure: as §1

[3] = target: T3, biotinylated recombinant human FAP (human, UniProt Q12884 27-760, biotinylated (site not stated)); assay: SPR (Biacore), Fab
T3 construct: also called biotinylated human FAP; recombinant huFAP

[4] = target: T1, human fibroblast activation protein …; assay: flow cytometry competition on huFAP-transfected HEK cells; unlabelled antibody titrated 0.2-60 µg/ml, then AF647-labelled 4B9 (20 µg/ml) as competitor
Procedure: Briefly, the target cells were harvested with Cell Dissociation buffer, washed with FACS Buffer (PBS+2% FCS+5 mM EDTA+0.25% sodium acide) and seeded into 96-U bottom plates (1×10^5 cells/well).

[5] = target: T3, biotinylated recombinant human FAP; assay: SPR (Biacore), biotinylated huFAP immobilized, Fab analyte
Procedure: As running and dilution buffer, HBS-P+ (10 mM HEPES, 150 mM NaCl pH 7.4, 0.05% Surfactant P20) was used. A dilution series of anti-huFAP Fabs (3.7-300 nM, 1:3 dilution) was successively injected for 120s each, dissociation was monitored for 1800s at a flow rate of 30 μl/min (single cycle kinetics). The surface was regenerated by injecting 6 M guanidine-HCl, 0.25 M NaOH for 120 s. […] Curve fitting was performed using the 1:1 Langmuir binding model within the Biacore evaluation software.

B1: P1AE2487, CD40 (P1AE0817) x FAP (4B9) (2+1) C-terminal crossfab fusion (bispecific antibody)
chain 1: EIVLTQSPGTLSLSPGERATLSCRASQSVTSSYLAWYQQKPGQAPRLLINVGSRRATGIPDRFSGSGSGTDFTLTISRLEPEDFAVYYCQQGIMLPPTFGQGTKVEIKSSASTKGPSVFPLAPSSKSTSGGTAALGCLVKDYFPEPVTVSWNSGALTSGVHTFPAVLQSSGLYSLSSVVTVPSSSLGTQTYICNVNHKPSNTKVDKKVEPKSC
chain 2: DIVMTQTPLSLSVTPGQPASISCRSSQSLVHSNGNTFLHWYLQKPGQSPQLLIYTVSNRFSGVPDRFSGSGSGTDFTLKISRVEAEDVGVYFCSQTTHVPWTFGGGTKVEIKRTVAAPSVFIFPPSDEQLKSGTASVVCLLNNFYPREAKVQWKVDNALQSGNSQESVTEQDSKDSTYSLSSTLTLSKADYEKHKVYACEVTHQGLSSPVTKSFNRGEC
chain 3: not shown
chain 4: QVQLVQSGAEVKKPGASVKVSCKASGYSFTGYYIHWVRQAPGQSLEWMGRVIPNAGGTSYNQKFKGRVTLTVDKSISTAYMELSRLRSDDTAVYYCAREGIYWWGQGTTVTVSSASTKGPSVFPLAPSSKSTSGGTAALGCLVKDYFPEPVTVSWNSGALTSGVHTFPAVLQSSGLYSLSSVVTVPSSSLGTQTYICNVNHKPSNTKVDKKVEPKSCDKTHTCPPCPAPEAAGGPSVFLFPPKPKDTLMISRTPEVTCVVVDVSHEDPEVKFNWYVDGVEVHNAKTKPREEQYNSTYRVVSVLTVLHQDWLNGKEYKCKVSNKALGAPIEKTISKAKGQPREPQVCTLPPSRDELTKNQVSLSCAVKGFYPSDIAVEWESNGQPENNYKTTPPVLDSDGSFFLVSKLTVDKSRWQQGNVFSCSVMHEALHNHYTQKSLSLSPG
EC50 [1]: 3.7 nM

B2: P1AE3377, CD40 (P1AE0817) x FAP (P1AE1689) (3+1) C-terminal crossfab fusion (bispecific antibody, human IgG1, kappa, L234A L235A)
light 1: QVQLVQSGAEVKKPGASVKVSCKASGYTLTDYNMDWVRQAPGQGLEWIGDIYPNTGGTIYNQKFKGRVTMTIDTSTSTVYMELSSLRSEDTAVYYCTRFRGIHYAMDYWGQGTTVTVSSASVAAPSVFIFPPSDEQLKSGTASVVCLLNNFYPREAKVQWKVDNALQSGNSQESVTEQDSKDSTYSLSSTLTLSKADYEKHKVYACEVTHQGLSSPVTKSFNRGEC
light 2: DIVMTQTPLSLSVTPGQPASISCRSSQSLVHSNGNTFLHWYLQKPGQSPQLLIYTVSNRFSGVPDRFSGSGSGTDFTLKISRVEAEDVGVYFCSQTTHVPWTFGGGTKVEIKRTVAAPSVFIFPPSDRKLKSGTASVVCLLNNFYPREAKVQWKVDNALQSGNSQESVTEQDSKDSTYSLSSTLTLSKADYEKHKVYACEVTHQGLSSPVTKSFNRGEC
heavy 1: not shown
heavy 2: QVQLVQSGAEVKKPGASVKVSCKASGYSFTGYYIHWVRQAPGQSLEWMGRVIPNAGGTSYNQKFKGRVTLTVDKSISTAYMELSRLRSDDTAVYYCAREGIYWWGQGTTVTVSSASTKGPSVFPLAPSSKSTSGGTAALGCLVEDYFPEPVTVSWNSGALTSGVHTFPAVLQSSGLYSLSSVVTVPSSSLGTQTYICNVNHKPSNTKVDEKVEPKSCDGGGGSGGGGSQVQLVQSGAEVKKPGASVKVSCKASGYSFTGYYIHWVRQAPGQSLEWMGRVIPNAGGTSYNQKFKGRVTLTVDKSISTAYMELSRLRSDDTAVYYCAREGIYWWGQGTTVTVSSASTKGPSVFPLAPSSKSTSGGTAALGCLVEDYFPEPVTVSWNSGALTSGVHTFPAVLQSSGLYSLSSVVTVPSSSLGTQTYICNVNHKPSNTKVDEKVEPKSCDKTHTCPPCPAPEAAGGPSVFLFPPKPKDTLMISRTPEVTCVVVDVSHEDPEVKFNWYVDGVEVHNAKTKPREEQYNSTYRVVSVLTVLHQDWLNGKEYKCKVSNKALGAPIEKTISKAKGQPREPQVCTLPPSRDELTKNQVSLSCAVKGFYPSDIAVEWESNGQPENNYKTTPPVLDSDGSFFLVSKLTVDKSRWQQGNVFSCSVMHEALHNHYTQKSLSLSPG
notes: Trivalent for CD40, monovalent for FAP; knob-into-hole, P329G LALA Fc; also called CD40 x FAP (212) 3+1 crossfab
EC50 [1]: 4.94 nM
EC50 [2]: 0.038 nM

B4: P1AE1690_Fab (humanized clone 212, VH1G2a/VL1G1a) (Fab, V domains shown)
VH: QVQLVQSGAEVKKPGASVKVSCKASGYTLTDYNMDWVRQAPGKSLEWIGDIYPNTGGTIYNQKFKGRVTMTIDKSTSTVYMELSSLRSEDTAVYYCTRFRGIHYAMDYWGQGTTVTVSS
VL: EIVLTQSPATLSLSPGERATLSCRASESVDNYGLSFINWFQQKPGQAPRLLIYGTSNRGSGIPARFSGSGSGTDFTLTISSLEPEDFAVYFCQQSNEVPYTFGGGTKVEIK
notes: Fab
T ½ [3]: 183 min

B5: P1AE1693_Fab (humanized clone 212, VH1G2a/VL1G2a) (Fab, V domains shown)
VH: QVQLVQSGAEVKKPGASVKVSCKASGYTLTDYNMDWVRQAPGKSLEWIGDIYPNTGGTIYNQKFKGRVTMTIDKSTSTVYMELSSLRSEDTAVYYCTRFRGIHYAMDYWGQGTTVTVSS
VL: EIVLTQSPATLSLSPGERATLSCRASESVDNYGLSFINWFQQKPGQPPRLLIYGTSNRGSGIPARFSGSGSGTDFTLTISSLEPEDFAVYFCQQSNEVPYTFGGGTKVEIK
notes: Fab
T ½ [3]: 161 min

B6: P1AE1689_Fab (humanized clone 212, VH1G1a/VL1G1a) (Fab, V domains shown)
VH: QVQLVQSGAEVKKPGASVKVSCKASGYTLTDYNMDWVRQAPGQGLEWIGDIYPNTGGTIYNQKFKGRVTMTIDTSTSTVYMELSSLRSEDTAVYYCTRFRGIHYAMDYWGQGTTVTVSS
VL: EIVLTQSPATLSLSPGERATLSCRASESVDNYGLSFINWFQQKPGQAPRLLIYGTSNRGSGIPARFSGSGSGTDFTLTISSLEPEDFAVYFCQQSNEVPYTFGGGTKVEIK
notes: Fab
T ½ [3]: 274 min

B7: P1AE1702_Fab (humanized clone 212, VH2G2a/VL2G2a) (Fab, V domains shown)
VH: EVQLLESGGGLVQPGGSLRLSCAASGYTLTDYNMDWVRQAPGKGLEWVGDIYPNTGGTIYNQKFKGRFTISIDKSKNTAYLQMNSLRAEDTAVYYCTRFRGIHYAMDYWGQGTTVTVSS
VL: DIQMTQSPSSLSASVGDRVTITCRASESVDNYGLSFINWFQQKPGQPPKLLIYGTSNRGSGVPSRFSGSGSGTDFTLTISSLQPEDFAMYFCQQSNEVPYTFGGGTKVEIK
notes: Fab
T ½ [3]: 108 min

Results, then the binder that gave them:

EC50 [1]: 5.53 nM
EC50 [2]: 0.085 nM
B3: P1AE3378, CD40 (P1AE0817) x FAP (4B9) (3+1) with C-terminal crossfab fusion (bispecific antibody)
chain 1: EIVLTQSPGTLSLSPGERATLSCRASQSVTSSYLAWYQQKPGQAPRLLINVGSRRATGIPDRFSGSGSGTDFTLTISRLEPEDFAVYYCQQGIMLPPTFGQGTKVEIKSSASTKGPSVFPLAPSSKSTSGGTAALGCLVKDYFPEPVTVSWNSGALTSGVHTFPAVLQSSGLYSLSSVVTVPSSSLGTQTYICNVNHKPSNTKVDKKVEPKSC
chain 2: DIVMTQTPLSLSVTPGQPASISCRSSQSLVHSNGNTFLHWYLQKPGQSPQLLIYTVSNRFSGVPDRFSGSGSGTDFTLKISRVEAEDVGVYFCSQTTHVPWTFGGGTKVEIKRTVAAPSVFIFPPSDEQLKSGTASVVCLLNNFYPREAKVQWKVDNALQSGNSQESVTEQDSKDSTYSLSSTLTLSKADYEKHKVYACEVTHQGLSSPVTKSFNRGEC
chain 3: not shown
chain 4: QVQLVQSGAEVKKPGASVKVSCKASGYSFTGYYIHWVRQAPGQSLEWMGRVIPNAGGTSYNQKFKGRVTLTVDKSISTAYMELSRLRSDDTAVYYCAREGIYWWGQGTTVTVSSASTKGPSVFPLAPSSKSTSGGTAALGCLVKDYFPEPVTVSWNSGALTSGVHTFPAVLQSSGLYSLSSVVTVPSSSLGTQTYICNVNHKPSNTKVDKKVEPKSCDGGGGSGGGGSQVQLVQSGAEVKKPGASVKVSCKASGYSFTGYYIHWVRQAPGQSLEWMGRVIPNAGGTSYNQKFKGRVTLTVDKSISTAYMELSRLRSDDTAVYYCAREGIYWWGQGTTVTVSSASTKGPSVFPLAPSSKSTSGGTAALGCLVKDYFPEPVTVSWNSGALTSGVHTFPAVLQSSGLYSLSSVVTVPSSSLGTQTYICNVNHKPSNTKVDKKVEPKSCDKTHTCPPCPAPEAAGGPSVFLFPPKPKDTLMISRTPEVTCVVVDVSHEDPEVKFNWYVDGVEVHNAKTKPREEQYNSTYRVVSVLTVLHQDWLNGKEYKCKVSNKALGAPIEKTISKAKGQPREPQVCTLPPSRDELTKNQVSLSCAVKGFYPSDIAVEWESNGQPENNYKTTPPVLDSDGSFFLVSKLTVDKSRWQQGNVFSCSVMHEALHNHYTQKSLSLSPG

binding result [4]: binds
B8: anti-FAP antibody 28H1 (antibody, V domains shown)
VH: EVQLLESGGGLVQPGGSLRLSCAASGFTFSSHAMSWVRQAPGKGLEWVSAIWASGEQYYADSVKGRFTISRDNSKNTLYLQMNSLRAEDTAVYYCAKGWLGNFDYWGQGTLVTVSS
VL: EIVLTQSPGTLSLSPGERATLSCRASQSVSRSYLAWYQQKPGQAPRLLIIGASTRATGIPDRFSGSGSGTDFTLTISRLEPEDFAVYYCQQGQVIPPTFGQGTKVEIK
notes: also called FAP clone 28H1; FAP (28H1)

Kd [3]: 0.279 nM
T ½ [3]: 55 min
koff [3]: 0.000208 s⁻¹
kon [3]: 747000 M⁻¹ s⁻¹
Kd [5]: 0.43 nM
koff [5]: 0.00078 s⁻¹
kon [5]: 1.82e+06 M⁻¹ s⁻¹
B9: 4B9_Fab (Fab, V domains shown)
VH: EVQLLESGGGLVQPGGSLRLSCAASGFTFSSYAMSWVRQAPGKGLEWVSAIIGSGASTYYADSVKGRFTISRDNSKNTLYLQMNSLRAEDTAVYYCAKGWFGGFNYWGQGTLVTVSS
VL: EIVLTQSPGTLSLSPGERATLSCRASQSVTSSYLAWYQQKPGQAPRLLINVGSRRATGIPDRFSGSGSGTDFTLTISRLEPEDFAVYYCQQGIMLPPTFGQGTKVEIK
notes: Fab
